The DeepSol protein solubility set

Experiment: soluble on expression in E. coli; label from the status in PepcDB or PDB records

Sequence	soluble on expression in E. coli
MELETEIIVDKVDVENPILITSFPGIGLVGTIATAHYIMELKLESIGIVDSRLLPPVASLYEGVILPPVRVYQSADLGFVLIHSDVPIIPQAAIDMSKKIVQFAAEINARRVYSFAGVATFEDKKRVFAAATSKELLEEVKDHAEIFKTGTISGIAGSIMNECVAAKMPGIVLLGETLGFNPDPRAAASLIEAVNKIMNWNVSVEKLLKEAEMIEAQMQKLAEQARMQEERKEEFPMYG	soluble
MELKEGDEILNVAGPLGNPAPMEKFGKILAIGAYVGIAEVYPIAKAWQEIGNDVTTLHVTFEPMVILKDYFEKAVSRHIVEPVKIDQEKSFQENTKNVTKALTAKVKELLDNENWDLVFMVGPPGDQKAVFEVVKKYGIPMKVDLHPIMLEHHHHHH	not soluble
MELKKFELKTVELPILKPGTLRGKKEFRLLHISDLHMIPGQETKKAWVSALDSLSPDLVINTGDNLSDEKAVPDVLRALGPLMNRPGAFVFGTNDYWAPRPVNPFGYLFGKKREVSHIDLPWRAMRAAFIEHGWQDANQKRLEFQVGSVRLAISGVDDPHHDLDDYTEIAGAPNVDADLSIALLHAPEPRVLAQFEADGYQLSLSGHTHGGQLEHHHHHH	not soluble
MELKLIPIEKPENLNVILGQAHFIKTVEDLHEALVTAVPGIRFGLAFSEASGKRLVRRSGTDEALVELAVKNLLNLACGHVFLIVLGEGFYPINVLHAVKACPEVVRIYAATANPLKVVVAEEGEQRAILGVMDGFTPLGVEDEAEVAWRKDLLRRLGYKL	soluble
MELMIGRVVKSHGIRGEVAIEVTTEEPEIRFAQGEVLNGRQGGKEHSLTIASVRPHQNRLLVKFKEIADRTAADSLRGTRFFAAPLDDDVDDGFYDHELEGLAVIHGEEKIGEVSGVIHGPAQSLLEVTLESGKEVLIPFVHDIVPEVDLDAGTCVITPPEGLLEL	not soluble
MELNGKAPSRRQLNIQHWNTAEGARVLFVEARELPMFDLRVTFAAGSSQDGGTPGLAALTNAMLNEGVAGKDVTAIAEGFEGLGADFGNGSYRDMAVASLRSLSAKDKREPALKLFTEVAGKPTFPEDALKRIKNQMLAGFEYEKQNPGKIAGKALFGKLYGDHPYAHPSDGTAESITGISLAQLRAFHAKAYTGGNAVIALVGDLSRAEAEAIAAQVSAGLPKGPALAAPAQPALEHHHHHH	soluble
MELRVAGFLDNSMVNGEGLRSVLFLSGCRRRCPGCQNTDMQDFKYGESVSAEEIFNRIKSNVPIIKGVTFSGGDPLEQAEGLINISKEIKKLGLNIWCYTGYTYEEILKEKDSNKLELLKYIDVLVDGEFKAELTENAPKYAGSSNQRIIRLKLEHHHHHH	not soluble
MELTTKLVGTCSALDRLYQSGSAKCLFPRNSRAGLEAVLLNTAGGVTGGDRLSFSAQVRAGTRLSVTTQACERAYRAQPGETGQVRNHLSVATGARMNWLPQETILYDGSSLDRRLSVEIEPGASLLMVEPLVFGRIEMGESLNDARFCDRIEITRRGRPIFLDATRLQGGIAAHLAKPFIANGAGAMALLVYLAENAEAVLPRLRQMLPECAGASLIGEDLLVMRVLAADSFLLRQSLLPALRLLNNNEIPRCWTILEHHHHHH	not soluble
MEMILEEKDASDWIYRGEGGANLVLAYAGSSPLFVGKVIRIQKARRNDKAIKNANGVVSVLTSDEQHLWRENNELISSPNKEVLEQRYVKNVIIPLLGPKHVDAGVRVSVSKEFLECVDKKVTKQRPLWRVNAANVDTSHDSALILNDHSLFSQGISSGGDCISVEIKPKCGFLPTSRFIGKENMLKTSVSRFKMHQLLKLEYNEISAASAYDPLDLFSGSKESVLEAIKALYSTPQNNFRVFLNGSLILGGSGESTGRTSPEIGYAFEDALKGFIQSEDGHRTECFLQLVSDAVYGSGVLDRLLEIQKLDKLDIEGAIHSYYDLINQPCPICKEGKPLEAELSLHALPLDESLKIVKEYLIAATAKDCSIMISFQSRNAWDSEPSGDYVSLKPTNQTFDYKVHFIDLSLKPLKRMESYYKLDKKIISFYNRKQKAENTAEQIGNSKPSHS	soluble
MEMSSNNKPVAGAEIKVAGASPTDSDQEGRFILNFTASLPGDPLMINDIYKKGFKIVNYEKVANWNISSASELKIVLGRTEVINALRKKYYDIGESNSEKEYRKTLAELEELKKQNALSAVEYDQKVDSMSKSMMEWQKRLEIYALKFACINRDELDAMEKQAMELLDHGDVHGAIRLYEEMKLDSTMTLKIAVRQEAKEDMKLLLPSLVNNFQLLKQADDKVACDSVAHLIYEMAADIKLKLMSVEWFFQRNDPSEVLDQYSLIVKDTQSMQEIELVENSLQQSLKEVKLKGELKKKAQLVFERIEDRKKWISIKEKI	not soluble
MENKMESIEQQVEVLLEQEPQLLPAAMAERLGVTEFDVVAALPQEMVAISPGEQAQTILESLVGFGPVTTIVHSFGSIFEVKAPFPKGKVARGYYNLMGREGELHGHLKLDNVKNIALVSKPFMGRESHYFGFFSECGSNIFKVYLGRDEKRELIAEQVTAFRAMQAELNQLEHHHHHH	not soluble
MENKVVEEKQVDKIPLMSPCKMGKFELCHRVVLAPLTRQRSYGYIPQPHAILHYSQRSTNGGLLIGEATVISETGIGYKDVPGIWTKEQVEAWKPIVDAVHAKGGIFFCQIWHVGRVSNKDFQPNGEDPISCTDRGLTPQIMSNGIDIAHFTRPRRLTTDEIPQIVNEFRVAARNAIEAGFDGVEIHGAHGYLIDQFMKDQVNDRSDKYGGSLENRCRFALEIVEAVANEIGSDRVGIRISPFAHYNEAGDTNPTALGLYMVESLNKYDLAYCHVVEPRMKTAWEKIECTESLVPMRKAYKGTFIVAGGYDREDGNRALIEDRADLVAYGRLFISNPDLPKRFELNAPLNKYNRDTFYTSDPIVGYTDYPFLETMT	soluble
MENLKNYFDVVIIGAGPAGLFAAYELSKYDNLKTVVIDRGKDVLERHCAAEKLKKCIKCNPCQIMYGVGGAGGLSDGTLNLRPDIGGNLAEITNNENYAWQLIFEVDKIFLEHGGPKKLFKGSFEKIKGLQRRSAQNGVRFIPIIQRHIGSDHTKQLINNIKTTLQNRGVEFLLNTEVFKFEKNKVFVNISGKKEEINAKYIIVAPGRGNAEWFLKISEKIGLISNHGPIDVGVRVEVPSIIMESITEINHDPKFHIYTDTYDDFVRTFCTNPYGFVVEENYGDIIGVNGHSMVDKKSENTNFSFLTRIELTEPVENTTSYGKSIAKLTTTLGGGKPILQRLGDLKRGRRSTWDRLKKSSFDPTLKQVTPGDIAMALPHRIVTNIIEGLEKLDKVIPGVSNDHTLLYAPEIKYYAMKTKVNDDLETSILNIFAAGDGAGLSRDITNSCATGMLAARGILKKEGITDIFKDENTNWQEKVESMKLEHHHHHH	soluble
MENMLLWLIFFTPGWTLIDGSEMEWDFMWHLRKVPRIVSERTFHLTSPAFEADAKMMVNTVCGIECQKELPTPSLSELEDYLSYETVFENGTRTLTRVKVQDLVLEPTQNITTKGVSVRRKRQVYGTDSRFSILDKRFLTNFPFSTAVKLSTGCSGILISPQHVLTAAHCVHDGKDYVKGSKKLRVGLLKMRNKSGGKKRRGSKRSRREASGGDQREGTREHLQERAKGGRRRKKSGRGQRIAEGRPSFQWTRVKNTHIPKGWARGGMGDATLDYDYALLELKRAHKKKYMELGISPTIKKMPGGMIHFSGFDNDRADQLVYRFCSVSDESNDLLYQYCDAESGSTGSGVYLRLKDPDKKNWKRKIIAVYSGHQWVDVHGVQKDYNVAVRITPLKYAQICLWIHGNDANCAYG	not soluble
MENNLAEFERRAEKNLLIMCKEKEKLQKKAHELKRRLLLSQRKRELADVLDAQIEMLSPFEAVATRFKEQYRTFATALDTTRHELPVRSIHLEGDGQQLLDALQHELVTTQRLLGELDVGDSEENVQVLDLLSELKDVTAKKDLELRRSFAQVLELSAEASKEAALANQEVWEETQGMAPPSRWYFNQDSACRESGGAPKNTPLSEDDNPGASSAPAQATFISPSEDFSSSSQAEVPPSLSRSGRDLS	soluble
MEQDNSPQKIQFTVPLLEPHLDPEAAEQIRRRRPTPATLVLTSDQSSPEIDEDRIPNPHLKSTLAMSPRQRKKMTRITPTMKELQMMVEHHLGQQQQGEEPEGAAESTGTQESRPPGIPDTEVESRLGTSGTAKKTAECIPKTHERGSKEPSTKEPSTHIPPLDSKGANSV	soluble
MEQLLFRHNRPGRCVTFAEYRAEGGFAALEKALAGMSPNDVQQVVIDSGLRGRGGAGFPTGKKWSFVPRDIPGPRYLICNCDEMEPGTYKDRVLLEANPYSLVEGMTLAAYAIGVAHAFIFIRRGYEEAAENCRRAIAEAKAAGLLGENILGTGFSLELDVHQSAGRYICGEETALMNALEGKRANPRSKPPFPAVKGLWGRPTVVNNVETLANIPAIVANGAAWFKGLARIPEAAGMKLFCVSGHVNNTACFELPLGMTLGEIIDGPCGGMLPGREFKACIPGGASTPFFTKEHWHVPMDFDTVAKAGSRLGTGGIVVFDRDTCMVAATLNLIVFYARESCGWCTPCREGLPFVQDVLARIEAGEGREEHIGILREHIQYLNYSFCPLAPGAMGPVEGLLRLFEGEIREHIVLGRCPFGGKLEHHHHHH	not soluble
MEQLSIQTDELQDQFSNCSPASVDSSYSSCSSVEDEIEIYTRLVRNEEPLRRDFFREMSKNSSCSSSFDYGEFGPSSSSRKGSKTTDADLDSLFHSLVETSDQVNTVPKPTKTEVESIPEEFEQKPSSSSHRLPSEMNASITHIKSELDPTMQAFQMPHNDLFLATAAPHYNPFALSNDFMPNPLMPSFTSPFYPQHFPVSDSRRGSQGTTSSSNNTGGTPSPHSSSLPTSPPQLQGFLRSFLNPDNLSTPTSFGVPSETALDADKMCAVCNDRAVCLHYGARTCEGCKGFFKRTVQKNSKYTCAGNKTCPIDKRYRSRCQYCRYQKCLEVGMVKEIVRHGSLSGRRGRLSSKTKLARSEDQPSPPLPLLALMGKAIEDHTNMTVVRQFMQPFDETIALRILHGELHATKKLLMAMPQISEIQPADFQILLSRSFFAIMAIRVANRCGNSTDTIMFESGELFSLNAFPACFQQIIRFMVDKARTFSSLVDWEPQAFAAFIALQFLAGNTEHNVLGLTNKPLVDQVQSTIINALKDHCSGSQNKLAKIVRLTQEFDVFHALGLQALDILYPSHQLPEEFMFLINLTRAPLRSTDAPPACGSPVAPSGSSLFNFQMGPAAF	not soluble
MEQMIFIRKDDKVEVFSEEEELKGSYYRAILEDNPTKSGHNKLKVRYLTQLNEHRLAPLTEFVDQRFIRPVPSEDVNDGVVFVEGLMVDAYLKDGWWTGVVVKTMEDEKFLVYFDCPPDIIQFEKKKLRVHLDWTGFKWIRPDNKELVKSVFSCGTMVELRFDCAWIPVIVIKELEKDKRFLVKYWNKSYSCRESKNLIVDSLRLRPMQPPLSVGKYELLDHVEAFSGFEWRQGVVRGIVFEGRYMVSFGATKEASQFNHSDIRPPMEWEDGVWHKRTKPKRQKETSLDGNRNVQTKEPPGNEMADDVKKESGLPITLGVTATKNKTQGKVSPVPMKNGFGNESTREKMPEEPKIKYYTRKRKRGGLKLNSYINKTVLSSDRTPNVVKNSASNAEENHAKHTIMVLPFAKKSPVWKTYESLEVFKSVSHSLHFSPLFETKQDFREGYAIGMMVTYFGLLEKFKDLEADVPVSQLNSLKDSFSELEKHGFNVTTPLSRIDKLLALKDRQLYIMEELKGFDKEMTNEFSKAKQEFDDMEQKILEVKHKIIELQRQEAALKEQKEAEKEQKDAAWKKICQMESCAKDLNVELEDVEFEFETILSAPW	soluble
